Measurements: ChEMBL document CHEMBL2074325, “The multidrug resistance protein 5 functions as an ATP-dependent export pump for cyclic nucleotides” (J Biol Chem, 2000)

Tested on: [H][C@@]12COP(=O)(O)O[C@@]1([H])[C@@H](O)[C@H](n1cnc3c(=O)[nH]c(N)nc31)O2
Assay: TP_TRANSPORTER: uptake in membrane vesicles from MRP5-expressing V79 cells
Assay type: functional, cell membranes, Membrane vesicle

ATP-binding cassette sub-family C member 5 (Homo sapiens)
Km: 2.1 µM
